Experimental data published in patent US20020127652A1 (published 2002).

B1: wildtype human FSH (follicle stimulating hormone), recombinant, produced in CHO K1 cells (ligand)
chain 1: not shown
chain 2: CELTNITIAIEKEECRFCISINTTWCAGYCYTRDLVYKDPARPKIQKTCTFKELVYETVRVPGCAHHADSLYTYPVATQCHCGKCDSDSTDCTVRGLGPSYCSFGEMKE
B2: FSH1208, variant form of FSH containing two N-linked glycosylations at the N-terminus of the alpha subunit (ligand)
chain 1: not shown
chain 2: CELTNITIAIEKEECRFCISINTTWCAGYCYTRDLVYKDPARPKIQKTCTFKELVYETVRVPGCAHHADSLYTYPVATQCHCGKCDSDSTDCTVRGLGPSYCSFGEMKE
modifications: both asparagine residues of the N-terminal extension … are glycosylated

Target: T1, human FSH receptor (human, UniProt P23945 18-695)
T1 sequence (looked up): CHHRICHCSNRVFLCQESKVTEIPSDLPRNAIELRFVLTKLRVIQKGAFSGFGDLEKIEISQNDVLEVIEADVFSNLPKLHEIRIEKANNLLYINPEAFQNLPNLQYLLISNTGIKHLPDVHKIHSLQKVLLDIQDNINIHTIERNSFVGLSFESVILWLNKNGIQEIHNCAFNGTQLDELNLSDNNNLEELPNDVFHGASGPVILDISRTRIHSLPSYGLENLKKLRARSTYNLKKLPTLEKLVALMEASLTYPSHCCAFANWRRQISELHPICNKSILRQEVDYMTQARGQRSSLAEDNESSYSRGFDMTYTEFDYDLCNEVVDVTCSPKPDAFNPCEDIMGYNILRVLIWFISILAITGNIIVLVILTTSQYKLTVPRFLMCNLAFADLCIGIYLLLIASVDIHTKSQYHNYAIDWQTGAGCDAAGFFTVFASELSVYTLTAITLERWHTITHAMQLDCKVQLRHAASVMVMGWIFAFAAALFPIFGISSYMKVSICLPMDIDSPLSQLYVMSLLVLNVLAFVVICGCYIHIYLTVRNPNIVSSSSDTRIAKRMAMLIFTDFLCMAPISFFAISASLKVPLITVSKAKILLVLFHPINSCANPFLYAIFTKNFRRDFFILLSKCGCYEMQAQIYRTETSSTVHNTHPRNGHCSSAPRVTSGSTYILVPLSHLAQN
Assay: cell-based or functional assay

Binder	luciferase signal of the CHO FSH-R/CRE-luc reporter clone, EC50	specific activity (in vitro bioactivity in the FSH luciferase assay per FSH content by ELISA), relative to wildtype FSH
B1	~0.01 IU/ml	
B2		~0.33 fold of the wildtype reference
